Assay results as given in the supplement of paper PMC9112550, “Optimization of the antimicrobial peptide Bac7 by deep mutational scanning” (BMC Biology, 2022).

These sequences were tested on Escherichia coli TOP10 (assay: shrunken log2 fold change of peptide-encoding DNA abundance (4.5 h post-induction vs induction); higher = less antimicrobial activity (less host growth inhibition)). Settings: time post-induction: 4.5 h; library: site-saturation at positions 5, 18, 19, 20.
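Also: peptides expressed intracellularly from a pBAD plasmid library in pooled LB shake-flask culture, induced with 0.3% L-arabinose, DNA abundance read by NGS, three biological replicates, DESeq2 with apeglm shrinkage.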

Sequence | shrunken log2 fold change
RRIRSRPPRLPRPRPRPRSNPRP | -0.186
RRIRKRPPRLPRPRPRPDYEPRP | -0.164
RRIRCRPPRLPRPRPRPDLAPRP | 0.102
RRIRPRPPRLPRPRPRPWCRPRP | 0.0933
RRIRFRPPRLPRPRPRPGLWPRP | 0.526
RRIRHRPPRLPRPRPRPISHPRP | -0.0873
RRIRPRPPRLPRPRPRPCRTPRP | -0.194
RRIRCRPPRLPRPRPRPHWMPRP | -0.371
RRIRKRPPRLPRPRPRPFVIPRP | -0.363
RRIRERPPRLPRPRPRPISSPRP | -0.403
RRIRGRPPRLPRPRPRPRDHPRP | 0.978
RRIRHRPPRLPRPRPRPMPMPRP | 0.0326
RRIRERPPRLPRPRPRPAREPRP | 0.0588
RRIRTRPPRLPRPRPRPIETPRP | 0.108
RRIRFRPPRLPRPRPRPNHNPRP | -0.711
RRIRFRPPRLPRPRPRPEYWPRP | -0.245
RRIRVRPPRLPRPRPRPDGKPRP | -0.0236
RRIRDRPPRLPRPRPRPQGGPRP | -0.17
RRIRQRPPRLPRPRPRPARWPRP | 0.781
RRIRRRPPRLPRPRPRPKVPPRP | -0.0226
RRIRWRPPRLPRPRPRPEAAPRP | 1.76
RRIRYRPPRLPRPRPRPVNIPRP | -0.617
RRIRIRPPRLPRPRPRPKPYPRP | -0.24
RRIRQRPPRLPRPRPRPSFFPRP | -0.287
RRIRERPPRLPRPRPRPCFCPRP | -0.318

Sequence | shrunken log2 fold change
RRIRMRPPRLPRPRPRPFQQPRP | -0.00146
RRIRPRPPRLPRPRPRPAPRPRP | 0.992
RRIRKRPPRLPRPRPRPFDQPRP | -0.0318
RRIRIRPPRLPRPRPRPFDIPRP | -1.02
RRIRPRPPRLPRPRPRPAPVPRP | 0.409
RRIRSRPPRLPRPRPRPQWMPRP | -0.155
RRIRFRPPRLPRPRPRPHPIPRP | -0.0674
RRIRSRPPRLPRPRPRPAFGPRP | 0.291
RRIRVRPPRLPRPRPRPMYDPRP | -0.0887
RRIRERPPRLPRPRPRPFCTPRP | -0.304
RRIRPRPPRLPRPRPRPGMSPRP | 0.0989
RRIRGRPPRLPRPRPRPLFVPRP | 0.203
RRIRMRPPRLPRPRPRPACPPRP | 0.262
RRIRVRPPRLPRPRPRPNKAPRP | 0.13
RRIRRRPPRLPRPRPRPQFQPRP | 0.00665
RRIRERPPRLPRPRPRPNIPPRP | -0.396
RRIRERPPRLPRPRPRPIKRPRP | -0.171
RRIRGRPPRLPRPRPRPSIMPRP | 0.16
RRIRDRPPRLPRPRPRPEFIPRP | 0.163
RRIRMRPPRLPRPRPRPHLEPRP | 0.0983
RRIRRRPPRLPRPRPRPLENPRP | 0.194
RRIRQRPPRLPRPRPRPLENPRP | -0.0226
RRIRARPPRLPRPRPRPLEDPRP | 0.241
RRIRPRPPRLPRPRPRPILRPRP | -0.0705
RRIRYRPPRLPRPRPRPLLPPRP | -0.266

Sequence | shrunken log2 fold change
RRIRTRPPRLPRPRPRPYSYPRP | -0.692
RRIRMRPPRLPRPRPRPPQMPRP | 0.594
RRIRWRPPRLPRPRPRPPCEPRP | 0.379
RRIRHRPPRLPRPRPRPDKAPRP | -0.468
RRIRMRPPRLPRPRPRPLRKPRP | 1.54
RRIRQRPPRLPRPRPRPKARPRP | 0.152
RRIRKRPPRLPRPRPRPIYPPRP | -0.0542
RRIRTRPPRLPRPRPRPELRPRP | 0.225
RRIRCRPPRLPRPRPRPFNDPRP | 0.0223
RRIRNRPPRLPRPRPRPMVGPRP | -0.0679
RRIRTRPPRLPRPRPRPKCSPRP | -0.0669
RRIRDRPPRLPRPRPRPLWSPRP | -0.0446
RRIRHRPPRLPRPRPRPNWTPRP | -0.0102
RRIRLRPPRLPRPRPRPYNCPRP | -0.053
RRIRTRPPRLPRPRPRPFHMPRP | -0.13
RRIRCRPPRLPRPRPRPGHTPRP | -0.128
RRIRNRPPRLPRPRPRPAAAPRP | 0.43
RRIRNRPPRLPRPRPRPGVWPRP | 0.474
RRIRMRPPRLPRPRPRPCVWPRP | 0.245
RRIRLRPPRLPRPRPRPIYAPRP | 0.111
RRIRIRPPRLPRPRPRPEEQPRP | 0.0175
RRIRARPPRLPRPRPRPSELPRP | 0.22
RRIRVRPPRLPRPRPRPVKVPRP | 0.0348
RRIRERPPRLPRPRPRPIQPPRP | 0.0319
RRIRKRPPRLPRPRPRPPVLPRP | -0.0742
